Data published in patent publication USRE47150 (Bayer, dated 2018).
Positions count from the first letter of the chain named. Names may count otherwise.

T1: mouse tissue factor pathway inhibitor (TFPI) (mouse, UniProt O54819 29-289, limits assumed)
T1 construct: bought; also called mTFPI; murine TFPI
T1 sequence (looked up): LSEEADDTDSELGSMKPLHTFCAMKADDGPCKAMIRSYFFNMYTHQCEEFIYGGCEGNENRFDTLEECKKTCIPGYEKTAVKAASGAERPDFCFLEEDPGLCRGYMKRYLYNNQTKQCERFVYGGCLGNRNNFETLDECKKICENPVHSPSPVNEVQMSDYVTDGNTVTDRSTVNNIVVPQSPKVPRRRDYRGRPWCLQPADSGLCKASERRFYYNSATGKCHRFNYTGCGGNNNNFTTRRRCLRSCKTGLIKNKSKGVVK

T2: human tissue factor pathway inhibitor (TFPI) (human, UniProt P10646 29-304, limits assumed)
T2 construct: bought; also called hTFPI; human TFPI
T2 sequence (looked up): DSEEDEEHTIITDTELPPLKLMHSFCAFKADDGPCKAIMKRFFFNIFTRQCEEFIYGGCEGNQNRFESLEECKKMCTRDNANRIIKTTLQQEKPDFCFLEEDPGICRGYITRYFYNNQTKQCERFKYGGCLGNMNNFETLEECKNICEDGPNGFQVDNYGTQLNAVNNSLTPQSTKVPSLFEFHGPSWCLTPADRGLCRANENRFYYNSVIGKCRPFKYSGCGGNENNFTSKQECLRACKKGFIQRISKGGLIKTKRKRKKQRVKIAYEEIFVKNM

B1: 4B7 HC N32D+D62R+H107M+Y112D/LC D33R+N35T (Fab, V domains shown)
VH: QVQLQQSGPGLVKPSQTLSLTCAISGDSVSSDSAAWSWIRQSPGRGLEWLGIIYKRSKWYNRYAVSVKSRITINPDTSKNQFSLQLNSVTPEDTAVYYCARWHSDKMWGFDDWGQGTLVTVSS
VL: DIVMTQSPLSLPVTPGEPASISCRSSQSLVFSRGTTYLNWYLQKPGQSPQLLIYKGSNRASGVPDRFSGSGSGTDFTLKISRVEAEDVGVYYCQQYDSYPLTFGQGTKVEIKR
B2: 4B7 HC N32D+D62R+H107M+Y112D/LC F31I+D33R+N35I (Fab, V domains shown)
VH: B1 VH
VL: B1 VL with F31I, T35I
B3: 4B7 HC N32D+D62R+H107M+Y112D/LC F31M+D33F+N35I (Fab, V domains shown)
VH: B1 VH
VL: B1 VL with F31M, R33F, T35I
B4: 4B7 HC N32D+D62R+H107M+Y112D/LC F31I+S32R+N35I+D97T (Fab, V domains shown)
VH: B1 VH
VL: B1 VL with F31I, S32R, R33D, T35I, D97T
B5: 4B7 HC N32D+D62R+H107M+Y112D/LC F31M+S32R+D33F+N35I (Fab, V domains shown)
VH: B1 VH
VL: B1 VL with F31M, S32R, R33F, T35I
B6: 4B7 HC N32D+D62R+H107M+Y112D/LC F31M+D33R (Fab, V domains shown)
VH: B1 VH
VL: B1 VL with F31M, T35N
B7: 4B7 HC N32D+D62R+H107M+Y112D/LC F31M+S32R+D33F+D97T (Fab, V domains shown)
VH: B1 VH
VL: B1 VL with F31M, S32R, R33F, T35N, D97T
B8: 4B7 HC N32D+D62R+H107M+Y112D/LC F31M+S32L+D33R+N35I+D97T (Fab, V domains shown)
VH: B1 VH
VL: B1 VL with F31M, S32L, T35I, D97T
B9: 4B7 HC N32D+D62R+H107M+Y112D/LC F31M+S32R+D33R (Fab, V domains shown)
VH: B1 VH
VL: B1 VL with F31M, S32R, T35N
B10: 4B7 HC N32D+D62R+H107M+Y112D/LC F31I+S32R+D33F+N35T (Fab, V domains shown)
VH: B1 VH
VL: B1 VL with F31I, S32R, R33F
B11: 4B7 HC N32D+D62R+H107M+Y112D/LC F31M+S32R+D33R+N35I+D97T (Fab, V domains shown)
VH: B1 VH
VL: B1 VL with F31M, S32R, T35I, D97T
B12: 4B7 HC N32D+D62R+H107M+Y112D/LC F31M+D33R+N35I (Fab, V domains shown)
VH: B1 VH
VL: B1 VL with F31M, T35I
B13: 4B7 HC N32D+D62R+H107M+Y112D/LC F31M+D33F+N35T (Fab, V domains shown)
VH: B1 VH
VL: B1 VL with F31M, R33F
B14: 4B7 HC N32D+D62R+H107M+Y112D/LC F31I+S32R+D33F+N35I+D97T (Fab, V domains shown)
VH: B1 VH
VL: B1 VL with F31I, S32R, R33F, T35I, D97T
B15: 4B7 HC N32D+D62R+H107M+Y112D/LC F31I+N35I (Fab, V domains shown)
VH: B1 VH
VL: B1 VL with F31I, R33D, T35I
B16: 4B7 HC N32D+D62R+H107M+Y112D/LC F31I+D33R (Fab, V domains shown)
VH: B1 VH
VL: B1 VL with F31I, T35N

Target: T1, mouse tissue factor pathway inhibitor …
Assay: competitive ELISA

variant/HC_D62R | Binder
29.3 ratio | B1
43 ratio | B2
46.8 ratio | B3
8.7 ratio | B4
32.3 ratio | B5
24.6 ratio | B6
16.5 ratio | B7
26.7 ratio | B8
13.9 ratio | B9
19.7 ratio | B10
9.6 ratio | B11
23 ratio | B12
34.3 ratio | B13
20.6 ratio | B14
30 ratio | B15
27.9 ratio | B16

Target: T2, human tissue factor pathway inhibitor …
Assay: competitive ELISA

variant/HC_D62R | Binder
28.2 ratio | B1
29.8 ratio | B2
28.4 ratio | B3
18.2 ratio | B4
27 ratio | B5
26.9 ratio | B6
21.9 ratio | B7
32.2 ratio | B8
18.6 ratio | B9
29.5 ratio | B10
16.9 ratio | B11
21.3 ratio | B12
29.9 ratio | B13
28.7 ratio | B14
28.8 ratio | B15
30.1 ratio | B16
